Assays:
[1] = target: CTD MSK1 construct comprising residues 398-738 (human) (UniProt O75582); assay: SEC
[2] = target: CTD MSK1 construct comprising residues 414-750 (human) (UniProt O75582); assay: SEC
[3] = target: "full length" C-terminal kinase domain of MSK1 (residues 414-802) (human, UniProt O75582 414-802); assay: SPR
Chain of "full length" C-terminal kinase domain of MSK1 (residues 414-802) (O75582 414-802): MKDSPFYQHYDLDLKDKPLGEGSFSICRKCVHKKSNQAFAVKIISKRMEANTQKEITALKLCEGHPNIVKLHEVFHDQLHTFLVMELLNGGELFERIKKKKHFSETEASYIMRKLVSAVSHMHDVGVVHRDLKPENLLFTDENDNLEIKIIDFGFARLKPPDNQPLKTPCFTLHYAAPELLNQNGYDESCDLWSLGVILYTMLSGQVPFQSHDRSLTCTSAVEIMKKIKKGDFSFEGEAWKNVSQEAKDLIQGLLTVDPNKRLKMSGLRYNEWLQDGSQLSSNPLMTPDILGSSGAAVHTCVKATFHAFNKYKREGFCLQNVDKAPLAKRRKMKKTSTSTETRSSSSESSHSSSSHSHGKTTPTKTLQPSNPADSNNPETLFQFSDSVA

Molecule: CTD MSK1 construct comprising residues 398-738 (from UniProt O75582 398-738) (domain or fragment)
- stoichiometry N [1]: 2

Molecule: CTD MSK1 construct comprising residues 414-750 (from UniProt O75582 414-750) (domain or fragment)
- stoichiometry N [2]: 2

B1: Full length human ERK1 (enzyme, UniProt P27361 1-379, looked up)
chain: MAAAAAQGGGGGEPRRTEGVGPGVPGEVEMVKGQPFDVGPRYTQLQYIGEGAYGMVSSAYDHVRKTRVAIKKISPFEHQTYCQRTLREIQILLRFRHENVIGIRDILRASTLEAMRDVYIVQDLMETDLYKLLKSQQLSNDHICYFLYQILRGLKYIHSANVLHRDLKPSNLLINTTCDLKICDFGLARIADPEHDHTGFLTEYVATRWYRAPEIMLNSKGYTKSIDIWSVGCILAEMLSNRPIFPGKHYLDQLNHILGILGSPSQEDLNCIINMKARNYLQSLPSKTKVAWAKLFPKSDSKALDLLDRMLTFNPNKRITVEEALAHPYLEQYYDPTDEPVAEEPFTFAMELDDLPKERLKELIFQETARFQPGVLEAP
- Kd [3]: 74 ± 6 nM
